Legend:
[1] = target: T1, IL-17 (IL-17A) (Homo sapiens, UniProt Q16552 Q16552:24-155); assay: SPR; same as Example 1; settings: tags: Peprotech; chain copies: 2
T1 sequence: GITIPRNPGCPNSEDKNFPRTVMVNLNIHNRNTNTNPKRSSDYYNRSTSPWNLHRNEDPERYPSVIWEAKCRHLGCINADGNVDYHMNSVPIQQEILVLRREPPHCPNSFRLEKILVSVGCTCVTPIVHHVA

[2] = target: T1, IL-17 (IL-17A); assay: SPR; settings: tags: Peprotech; chain copies: 2
[3] = target: T1, IL-17 (IL-17A); assay: SPR; solution A, tRNA; settings: tags: Peprotech; chain copies: 2
Experimental: (§1) The binding activities for IL-17 of the nucleic acids shown by SEQ ID NOS:1-6 and 29-36 were evaluated by the surface plasmon resonance method. The measurements were taken using BIAcore 2000. The SA chip was used as the sensor chip, which had streptavidin immobilized thereon. Bound thereto was about 600 RU of a 16-nucleotide Poly dT with biotin bound to the 5′ end thereof. […] 20 μl, of human IL-17 for analyte, prepared at 0.5 was injected, with the addition of 0.1 mg/mL tRNA to lessen nonspecific adsorption. Solution A was used as a running buffer. […] Here, 30N refers to the nucleic acid pool used for the first round of SELEX, comprising a 30-nucleotide random sequence. As an example, a sensorgram showing a status of the binding of the aptamer shown by SEQ ID NO:1 (Apt1) and human IL-17 is shown in FIG. 7. From the above, it was shown that the nucleic acids shown by SEQ ID NOS:1-6 and 29-36 are aptamers that bind to IL-17.

[4] = target: T2, IL-17F (Homo sapiens, UniProt Q96PD4 Q96PD4:31-163); assay: SPR; tRNA added; settings: tags: R&D Systems 1335-INS/CF; chain copies: 2
T2 sequence: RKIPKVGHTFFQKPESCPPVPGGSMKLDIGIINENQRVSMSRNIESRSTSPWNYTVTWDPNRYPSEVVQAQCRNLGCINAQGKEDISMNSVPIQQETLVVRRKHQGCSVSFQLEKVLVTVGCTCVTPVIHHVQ
Experimental: as §1
Whether the IL-17 aptamers shown by SEQ ID NOS:1-6 and 29-36 bind to IL-17F, which belongs to the same family, was determined by the surface plasmon resonance method. The amino acid sequence homology between IL-17 and IL-17F is 50%. The experiment was performed using IL-17F produced by R&D Company (1335-INS/CF), while in a state wherein tRNA was added to lessen nonspecific adsorption as described above.

[5] = target: T1, IL-17 (IL-17A); assay: SPR; 3' A16-tailed RNA on dT16 SA chip; solution A pH 7.6, Ca/Mg, 0.1 mg/mL tRNA; settings: tags: Peprotech; chain copies: 2
Experimental: as §1

Does GCAGCAGAGGAUAGCGAAGUCAUUGAGCGCCUAUGCGUGC (ssRNA, 2'-F pyrimidines) [SEQ 38] bind [1]?
Result: binds

Does GGAUAGCGAAGUCAUUGAGCGCC (ssRNA, 2'-F pyrimidines; 2'-OMe at a3) [SEQ 40-2] bind [2]?
Result: binds

Does GGAUAGCGAAGACAUUGAGCGCC (ssRNA, 2'-F pyrimidines; 2'-OMe at a12) [SEQ 48] bind [2]?
Result: binds

Does GCAGAGGAUAGCGAAGUCAUUGAGCGCCUAUGC (ssRNA, 2'-F pyrimidines) [SEQ 39] bind [1]?
Result: binds

B1: SEQ 30 (ssRNA)
RNA: GGGAGCAGGAGAGAGGUCAGAUGGUCUAGCCGGAGGAGUCAGUAAUCGGUAGACCUAUGCGUGCUAGUGUGA
modifications: 2'-F pyrimidines
Does B1 bind [3]?
Result: binds

Does B1 bind [4]?
Result: no binding

Does GGAUAGAGAAGUCAUUGAGCGCC (ssRNA, 2'-F pyrimidines; 2'-OMe at a7) [SEQ 47] bind [2]?
Result: binds

B2: SEQ 6 (ssRNA)
RNA: GGGAGCAGGAGAGAGGUCAGAUGGUGAUGCAUAGGAGUGGAGUCAGAUAUAGCCCUAUGCGUGCUAGUGUGA
modifications: 2'-F pyrimidines
Does B2 bind [3]?
Result: binds

Does B2 bind [4]?
Result: no binding

Does GGAUAGCGAAGUCAUUGAGCGCC (ssRNA, 2'-F pyrimidines except c7; 2'-OMe at c7) [SEQ 40-3] bind [2]?
Result: binds

B3: SEQ 3 (ssRNA)
RNA: GGGAGCAGGAGAGAGGUCAGAUGUGUAAGGUCGGAAGUCAUGAACGGCCCGGACCUAUGCGUGCUAGUGUGA
modifications: 2'-F pyrimidines
Does B3 bind [3]?
Result: binds

Does B3 bind [4]?
Result: no binding

B4: SEQ 1 (Apt1) (ssRNA)
RNA: GGGAGCAGGAGAGAGGUCAGAUGGGCAGCAGAGGAUAGCGAAGUCAUUGAGCGCCUAUGCGUGCUAGUGUGA
modifications: 2'-F pyrimidines
Does B4 bind [5]?
Result: binds

Does B4 bind [4]?
Result: no binding

B5: SEQ 2 (ssRNA)
RNA: GGGAGCAGGAGAGAGGUCAGAUGGUGCACAUGGGAUAGCGAAGUCAUUGAGCGCCUAUGCGUGCUAGUGUGA
modifications: 2'-F pyrimidines
Which results are given for B5?
binding result [3]: binds; binding result [4]: no binding

B6: SEQ 32 (ssRNA)
RNA: GGGAGCAGGAGAGAGGUCAGAUGGGCAGCGGAGGAUGGCGAAGUCAUUGGGCGCCUAUGCGUGCUGGUGGAG
modifications: 2'-F pyrimidines
Does B6 bind [3]?
Result: binds

Does B6 bind [4]?
Result: no binding

B7: SEQ 5 (ssRNA)
RNA: GGGAGCAGGAGAGAGGUCAGAUGAGCGCCAUAGGGUAGAGAAGCCAUUGAUCACCUAUGCGUGCUAGUGUGA
modifications: 2'-F pyrimidines
Does B7 bind [3]?
Result: binds

Does B7 bind [4]?
Result: no binding

Does GGAUAGCGAAGUCAUUGAGCGCC (ssRNA, 2'-F pyrimidines; 2'-OMe at g19) [SEQ 40-4] bind [2]?
Result: binds

B8: SEQ 4 (ssRNA)
RNA: GGGAGCAGGAGAGAGGUCAGAUGCUAUAGCGAAGUCAUUGAGCGAGACAUAGGCCUAUGCGUGCUAGUGUGA
modifications: 2'-F pyrimidines
Does B8 bind [3]?
Result: binds

Does B8 bind [4]?
Result: no binding

B9: SEQ 29 (ssRNA)
RNA: GGGAGCAGGAGAGAGGUCAGAUGCGAUAGCGAAGUCAUUGAGCGCGUGUCCAACCUAUGCGUGCUAGUGUGA
modifications: 2'-F pyrimidines
What does the source list for B9?
binding result [3]: binds; binding result [4]: no binding

Does GGGGAUAGCGAAGUCAUUGAGCGCCCC (ssRNA, 2'-F pyrimidines) [SEQ 41] bind [1]?
Result: binds

Does GUGCACAUGGGAUAGCGAAGUCAUUGAGCGCCUAUGCGUGC (ssRNA, 2'-F pyrimidines) [SEQ 42] bind [1]?
Result: binds

B10: SEQ 37 (ssRNA)
RNA: CAGAUGGGCAGCAGAGGAUAGCGAAGUCAUUGAGCGCCUAUGCGUGCUAGUGUG
modifications: 2'-F pyrimidines
Does B10 bind [1]?
Result: binds

B11: SEQ 36 (ssRNA)
RNA: GGGAGCAGGAGAGAGGUCAGAUGUAUAGCGAAGUCAUUGAGCGACAAAGCCGGCCUAUGCGUGCUAGUGUGA
modifications: 2'-F pyrimidines
Does B11 bind [3]?
Result: binds

Does B11 bind [4]?
Result: no binding

B12: SEQ 31 (ssRNA)
RNA: GGGAGCAGGAGAGAGGUCAGAUGGAAGUGGAGUCAGAUAUAGCAAUAUUAUGACCUAUGCGUGCUAGUGUGA
modifications: 2'-F pyrimidines
Does B12 bind [3]?
Result: binds

Does B12 bind [4]?
Result: no binding

Does GGUCUAGCCGGAGGAGUCAGUAAUCGGUAGACC (ssRNA, 2'-F pyrimidines) [SEQ 44] bind [1]?
Result: binds

Does GGAUAGCGAAGUCAUCGAGCGCC (ssRNA, 2'-F pyrimidines) [SEQ 45] bind [2]?
Result: binds

Does GGAUAGCGAAGUCAUUGAGCGCC (ssRNA, 2'-F pyrimidines) [SEQ 40] bind [1]?
Result: binds

B13: SEQ 43 (ssRNA)
RNA: AGAGGUCAGAUGGUCUAGCCGGAGGAGUCAGUAAUCGGUAGACCUAUGCGUG
modifications: 2'-F pyrimidines
Does B13 bind [1]?
Result: binds

B14: SEQ 33 (ssRNA)
RNA: GGGAGCAGGAGAGAGGUCAGAUGGAGGAGCCAGUGAUCGUUGACCUCAAUGCACCUAUGCGUGCUAGUGUGA
modifications: 2'-F pyrimidines
What does the source list for B14?
binding result [3]: binds; binding result [4]: no binding

B15: SEQ 35 (ssRNA)
RNA: GGGAGCAGGAGAGAGGUCAGAUGGAGGAGGCAGUAAUCGUUGACUGGUAAACCCCUAUGCGUGCUAGUGUGA
modifications: 2'-F pyrimidines
What does the source list for B15?
binding result [3]: binds; binding result [4]: no binding

B16: SEQ 34 (ssRNA)
RNA: GGGAGCAGGAGAGAGGUCAGAUGGAGGAGACAGUGAUCGUUGACCCACCGGGUCCUAUGCGUGCUAGUGUGA
modifications: 2'-F pyrimidines
Does B16 bind [3]?
Result: binds

Does B16 bind [4]?
Result: no binding

Does GGAUAGCGAAGUCAUUGAGCACC (ssRNA, 2'-F pyrimidines) [SEQ 46] bind [2]?
Result: binds

— patent US20110177578, “APTAMER AGAINST IL-17 AND USE THEREOF” (The University of Tokyo, published 2011)
